Experimental data published in the NTF2 design screens of Basanta et al. (2020).

test: protease stability score; higher = more stable; yeast display proteolysis, trypsin and chymotrypsin;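 further: log10 excess protease needed over predicted unfolded state with 0 meaning unfolded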

First: DEQKQRDFAHTYKDVFNTGDPDEQRKMVDPNARAQVGDNDFHGDEEFDKWAEERRDRVDHVEIRSMSVHGNKVSMDVDVVYDGRRVRFSMRMEYHNGRFKHFKVNPDSQRKLEG
Second: DEQKTRQLEEVKKQLEHGNEREAKKNFDENVHINVGDKQIHGMHDAAREMATSWTQIRNEMTITRVHVRGDKIEIRASMVQNTNGRPRKAKVHIDVRINNGKIKRVTVKYDG
The protease stability score of the first is higher: 0.615 for the first, 0.181 for the second.

Compared with “DEQLNKHFVRLMQNNDFEELVRNADKDVRVRIGNKEYQGREEANTALKTFHKQVDKLTIRSYDYHNGSAKIDLEVRFNGQKFRFVVTARLHNGKMKSMRINFTNPEDQKQLDRDMS”, “DEQLRDRVTQLFKVWQTGDPKKVSEMFDKDARLEYGDKTVHGMEEARHQQDTRRREARLSLDIRSINVQGNQVEIDVRIEEDENGKPDTKQVTIRIRARNGRIHNAKLQDDG” is lower in protease stability score: 1.41 for the first, 0.1 for the second.

Compared with “DEQLVKILQRFRKAMEHGDPKEAQKYFDPNAEFVYGDKEIHGREQVNTWIHTFMRSIRVDIKSLTVRASGNKAHIQYSAVYEENGRPKTAHFHMTVQVTNGKIKHADVKYRG”, “DEQNEAKRLVEKLQSIVKSGDEEEWMKQFDENVKVSVGDKTVHGREDMVKQYQQHVKRADTMELQVNEYSVHNGRVSIRYKMRVDVNGQRHTTEAHVDFRNVNGRFKAQSVNQK” is lower in protease stability score: 1.1 for the first, 0 for the second.

Going from “DEQNLQDAAQRVDEVLRKGNEEDVTKMMDKDATMTVGDKVIHGRSKVRQQVRRLHEQVDHQEVEYVTAHNGRIKINMQADVNGQSLTFTVHIKVRNGRVKEIQIDPDYKRNLDR” to “DEQNQIKKIADDLETAARTNDPDKLLNMVDPNAKITYGDEEVHGRREAKRWLKEVNDHVDHMHVDIKRVHASGDKFTLRYRLVLVQNGKKDTTRVVATLRRTDGRVQIQSIDSG”, the protease stability score rises from -0.224 to 0.033.

Compared with “DEQQAKRVAEEFNRVLQTGDNRKAMQLADKDVKLHVGDKDVHGRETMMKLVRKERDRVDHVEIKEVTIQGNKIDVILTVVVNGRHKEKHYVLHLHNGRIEDLSVRST”, “DEQRIADNLDERFRRVMENNNEDELRKLFDKDARVRVGDKTLHGREEVDKRLREILQRADHIDIKVNDIHVRGDKINIHFKIRIVVDGRDRFYTAVVRADVHNGEAKIVELKQS” is higher in protease stability score: 0.005 for the first, 0.213 for the second.

First: DEQRQAEEWVDKLESELHDGDFTKFANMADENARIVIGDKEIHGRENLQEHAKELKHRVDHVEMHVRHLYVTNGTLTVDVDMVLNHNGQRDKRRVVIVATSENGKFRAQHVTYS
Second: DEQRYRELMETAFHLVISGDEDTLDQIGKPNMEYHYVDRTLHGKDVLRVLVKIVKRVGAEARVEEAEVNGDTARAKFQYRKGDNTVQTDAEVKYEGDQIKKARVRLNDEVRKVLKDG
The protease stability score of the first is higher: 1.05 for the first, 0.174 for the second.

First: DEQSEAEKFARDIQKIANHNNFERLARMADKDVKYNVGDKVITGEEKAIEHHRRLQKQFDSMRLEIESVRVQGEKIVVVARYTVEVNGTTRSERFVLVAEVHNGTIRIKTVQQG
Second: DEQSVAEELFENLQDAVRENNPDEYKKLVDPNVNFDVGDKKVHGREQASEKFRQDLERADHIDMKVTSLRVDNGRAQADVRVTRVINGESETVEYILRFEVHGDEAVVKSQHDK
The protease stability score of the first is lower: -0.167 for the first, 0.45 for the second.

Compared with “DEQTAAKKANELAEAISTGDPERVMELADKDVKVVVGDKTYHGKEDLREMAKRFRDRVDHAQIDSVTNDGEHAKIHMRVEVNGHTVEIDLVIEARNGHAKHLQVDPDDQRKLEG”, “DEQTHAEELARNFVTAIRTNNDQDIRDLFDKDARVEVGDKTIHGRENIARSIITIAKRVDSVDIRIQHVEVQGDKINIKMERRYDHNGQEHKKDLTMVARLTNGHMRIKVVKMD” is lower in protease stability score: 0.919 for the first, 0.885 for the second.

First: DEQTKAERFVQRVEEILKHGDEKKYAHLADKNVKVKYGDKEWHGREHWEKEVKKTRDKVDDIRIDYKELQVHNGKVDVRFQVRNNHNGKNESRDASYTLDDHNGRIRIQSMHVK
Second: DEQTKAQQFAEDVVKANQQNDKDRLTEQFDKNARVQVGEKEVHGREHIMEELIKLMTEADKVDVKVRHVHAQGDKVHLDIHFRMRVNGQDHDSRMTIVARNSNGTVVIESVDVK
The protease stability score of the first is lower: -0.009 for the first, 1.19 for the second.

Compared with “DEQVLRVLNEYLEDLKRNNEERLRKLADPNVKFQVGDKTLHGMEDAVNHWRHLLDHMELRIDITEVNVSNGRAVVNARASQNVNGRPNDNEVQIVAEAHNGTLKFVEWRFDPDRQRKIDS”, “DEQVQKQFKEAMRNREKGDKDKVVENFDKHVKVSVGDRTYHGMDDIARRQNEHMKEIRVEYRDVKMSVDNGKIVIHVRQQLEDNGEPREFSYTAEANATNGRIKSYRVDMDPEQVREVDR” is lower in protease stability score: 0.114 for the first, -0.215 for the second.

Going from “DEQWLNRLNRVFEHNNEEDLIKNMDPNVRVEIGDKRVRGRHKVKEALDRLKEEADHLQLKSVHVQGDKVSATMEMVVNGKHVQMTVTIEFTNGRIKNQRYKATDEKDKKVINDIMG” to “DERAADAIERLLKAMKDNDPSELSKQADENVHFDVGEKKYHGMETYARTVAKERHDAEQTYRLKDYRVDENHVSFNMRVVQTNNGKPVDVEAILRANVKGDKVKSMRIDEHK”, the protease stability score falls from 0.34 to -0.23.

Going from “DERAAQTAVDLMKTNNERDRVKMADENVRYNVGDKTVHGREEWKKFAEQQRTSIDHMKIDDVKHHNGRIQVDMVVVVNGKKFRFVLQATVHNGKFKYFQRKVRDDEIRKILRRINK” to “DERAEELLQRWMDAQRTGNPDEFVKLLDPNARYVVGDKEIHGSEQFKTHWQRQQDEMNVKVDVEDVKFSGNKISVRFHIEVDVNGRPLTDTATATWDLHNGRIKRQVYHLDPEFLRQVDS”, the protease stability score rises from 0.235 to 0.936.

Compared with “DERAEELVKRIFEALHDGDPQKFVNNIDPNARVNIGDEEIHGRKDAEREIQKRLEHSRVRFDLRSFRVSNGRAEATANVQENHNGRPQTNTVKATFVIHDGRVKEINMQHDG”, “DERAHEAIENWLRAEQTNDPKQVKDNADPNARVHVGDKVLHGMEEIQDELKRRIDQARYHIKDFHIDIQGEKAQIDREYTFSINGRPMSNTVRQEAKVDNGKIKEVNFRVSEELEDQEHK” is lower in protease stability score: -0.101 for the first, -0.242 for the second.

Going from “DERAHSHVEDFFRNLKSGNEDEIRKLLDPNARIKVGDKVIHGRDDAKRYVQQQKREMRMEYDVKTVDAQGDKIQVQVNVTQQHNGRPVQYQQNLHMTVENGDIHTVNYQMDTRIERVQES” to “DERAIRTVTRFWTAIKHNDPDKAVENVDPNARFRIGDREVDGDEDAKQWIEEMKRHMHIDIRSLRARDQGDKIEINFKFVISYNGRPQSQTQHATARVHNGKIHEVDINFDDQKKRELDS”, the protease stability score rises from -0.231 to -0.006.

Going from “DERAKEQMKNFQQAVSEGDPDQFRELMDKDARMVIGDQQLHGREKMMHQWQRLTRRIRREVKSVDVQVRGDTAELDIHFEQRKDGQPTKNSAVLEAVVHNGKVKELRVKNKR” to “DERAKEVFKELIEAWKHGNEDQVREMADKDARFTVGDKEIHGREEWAKQIRERHEKIRFEMRIRHVHVNGDRLSIEADFSVDINGQPLSYRMKIELRIHNGKIKELVFQVSEEDKNKQKR”, the protease stability score rises from 0.078 to 0.576.

First: DERALDVARQLVEALNTGDPETANNLLDKNVHIRVGDKRIHGRKQHSRTVDREKKEIRRHLEKVTNKSKGDKADVDIQFQQTHNGRPTSNQMKMIVEARNGKVKRMSVREHG
Second: DERALDVVRKYQEALNSNDPEHLVELIDPNAKLQVGDKTIHGREQLHHEAQKRKDEMRLNVEVHDLRDRGSTVQIHARRSYSHNGRPRSERYVLHATIRGDKIDKMHFQTDS
The protease stability score of the first is lower: -0.469 for the first, -0.243 for the second.

Compared with “DERALKMIREFEEIRSKGDERQLSEQVDKDADFHVGDKRLTGMDRVASELVQEVRDWRVSVDIKRMSISNGSLDIDAQVRFSHNGKPVTVHLDLKIIVHNGTIKQIEITNQP”, “DERALRNWRRLETAVNTNNPDKVQKLMDKDVKYEVGDKTIRGRRHAAQSLVERVNKIHLDIKSVTATDSGDNVRIRLDAVRNHNGRPHRDVLNITVKADNGKIVSVKTTKDG” is lower in protease stability score: 0.698 for the first, 0.001 for the second.

Going from “DERAQDLVRQWLENVHTGDPSKLREQMDPNAHVVIGDRTFTGRENFAETVHHHLQDQRVQYDTMRIENEGEKARFRYKATVQHNGQPSKHQATAQLTLHNGRIQSLQMESTQ” to “DERAREIVTRYFTALERGDPDKARKLADKDVRISVGDTQINGHDQMARTIDKQKKHMRIRFEDVKIHVNNGRADVKFHAVFEHNGKPERKNRTIIFNVHDGRIKEIQAQDDE”, the protease stability score rises from -0.162 to 0.321.

First: DERARERVEELLQVENDGDPDKVMEYFDPNAKAEIGDKHIHGRETFRHRLERTNKEMRYHLEVEHIRVNGNNVEMTFRAETEHNGQPSHDRNHAVLHITNGRIKYKRVKRDG
Second: DERARNVLKRIMHALRENNEEEFKKNADPNVRIHVGDKQYHGREDAARKIMTTLKSMKERIDVKSVDVEGDQIELHADVQVEENGQPDTKEIRVHADIQGDKMRSMKVDDTK
The protease stability score of the first is higher: 0.178 for the first, -0.308 for the second.

Compared with “DERASELAEKIIKALHTGNPQEVQKLVPPDVHVVYGDKNIHGRENAKKYWDQVLRNWRLNIQDFRIDADGDNVTVELHAEFNVNGQPIQARATVTVNVKNGRVKELNVQLPHEDLRRIRQ”, “DERAVEVLERFLEAQKTGNEEDLKKQVDPNARIQIGDKQVHGMDQAARNLVDTYEEIQIDFRIDRMSAHNGNVTVEAHQQINVNGRPFRNSVTMHAYLQGDKAKEINYRVPEKFENEVKS” is lower in protease stability score: 0.619 for the first, -0.326 for the second.

Compared with “DERAVKRMEKFIKVLINGNPDDLKEYLDENVKVDVGDKRIHGRETFMNEAEKDKRQMSVSLKEVRVDAHNGRLQVNARVHINHNGTPRDKEYVMQAILHNGRIKSMRVQSTG”, “DERDADEIAKVFVHNNPKDIERMVDEDVRIIIGDFEVQGREEARKYAEQLEKHIDHNHVRDYRVEGNKVTLDVNVVVNGRSLTFVVHITMHNGHVKEIRVQFTSPEDQKVFKEVVG” is lower in protease stability score: 0.835 for the first, 0.719 for the second.

Going from “DERDADKVRQLYENEQHGDEHKVMQLVDKDVRFQYGDHEVQGREQQKKLVKERQDKARFELKSVDARDHNGRVRVDVRWVAEVNGRPHEDTIEVVVEIHNGKVKHVEFRVDPDHWTEVMQ” to “DERDAETWTRMLEAVEYNNPEEVRKNADPNANFVYGNKTITGREQYAEEMKKEMDDMRKHVKIDDYHVEGDNIHVSAKFEWEVNGTPVRDTVSVQFVAENGKVRSVQYRFDPDSERKEDQ”, the protease stability score falls from 0.152 to -0.641.

First: DERDAKKRIKDMIEALHTGDPDEFKRNLPPNARLEYGDKRVHGREQLAREVEKERKRFDHVEVKHIKVDNGRVHVELDLNVNGRTETRELVFNVSNGRVEEVHIRVP
Second: DERDANEMMRVIREGDFNKFRQMADENVSAVYGDKTVRGRETIKRIIHRIKRHVDHLKVDSLSTTGDHVTVDAVMHVNGQRVHFVMVVRVQNGHIKEVQFEVRNEEAQKRLEQVLS
The protease stability score of the first is lower: -0.186 for the first, 1.18 for the second.

Compared with “DERDATNAIESVMKAIKEGDPDQMQKNADPNARLQIGDKVYHGRETIVTLLKELAHRVDHLQIDSMHQHNGRVTVSILVQVNGQRRTVNIEAQARDGRLKNMHIDPEFWRQLER”, “DERDDRQLNHLFRDLVHGDPDEADKLVDPNVQFTYGDRTYSGNDELQRLIDNWKKELHVTVKDIRVENQGDKVVIHIEMEYTHNGQPTSYKMSVRATAHNGKVKHMNMTSQS” is lower in protease stability score: 0.781 for the first, 0.103 for the second.

Going from “DERDEKRLNETAHRLVKTGDPDQWARLADKDVHVRVGDKKWEGREQLRDLLSRIVKNVDTHQVDTVTAKNGRITIRMVLNINGRNLTIWVTMVIHNGKIKEVEVRVRSEKERKKLES” to “DERDHVRRLLNTWLKVVKRNDEDQARRLADPNARVEVGDKTYSGDEKVVELMHKIRQQYDSIDIHLHTVKREGDFIHAKAKMDAKVNGKQEDVTMFIWFKQHNGEWHILQVIIK”, the protease stability score falls from 0.981 to 0.723.
